Assay results reported in US20230057263A1 (CYTOMX THERAPEUTICS, published 2023).
No end group written: not given here. *: point of attachment. Biotin = O=C1N[C@H]2[C@H](CS[C@H]2CCCCC(=O)*)N1; linker = not defined here

How the values were obtained:
human CD3 epsilon (CD3ε) = target: T1, human CD3 epsilon (CD3ε) (human, UniProt P07766 23-207); assay: flow cytometry on human T cells
T1 construct: Present on donor human T cells as part of the TCR-CD3 complex; also called CD3ε on human T cells
Method: (§1) In these experiments, human or cynomolgus T cells were incubated with an anti-CD3ε antibody and binding was assessed by flow cytometry.
(§2) Briefly, donor T cells from either human or cynomolgus donors were resuspended in FACS buffer containing 0.1% sodium azide and aliquoted in 100 μL volumes. For incubation, 100 μL aliquots of donor T cells were mixed with 50 μL of antibodies diluted in FACS buffer containing 0.1% sodium azide. The cells were then washed twice with FACS buffer containing sodium azide. The bound antibody was detected by incubating cells for 60 minutes with a 1:200 dilution of SAV-RPE (Invitrogen Cat No. SA10044, Lot. 1542820A) or 1:100 dilution of goat-anti-Mouse Fcγ-RPE (Jackson Cat. No. 115-116-071, Lot. 108668, diluted in 0.2% goat serum). The cells were washed, fixed, and analyzed with an Accuri Flow Cytometer.
(§3) Treatment with OKT3, SP34-2, and diL2K antibodies were used as positive controls for T cell binding. […] Treatment with OKT3, SP34-2, and diL2K antibodies were used as controls for T cell binding with only SP34-2 binding to cynomolgus T cells, as expected.

cynomolgus CD3-epsilon [1] = target: T2, cynomolgus CD3-epsilon (cynomolgus, UniProt Q95LI5 22-198); assay: flow cytometry on cynomolgus T cells
T2 construct: whole, on cells; also called CD3ε on cynomolgus T cells / PBMCs
Method: as §1, §2, §3

cynomolgus CD3-epsilon [2] = target: T2, cynomolgus CD3-epsilon; assay: flow cytometry, three-colour staining (CD3/CD4/CD8) of cynomolgus PBMCs of three donors
Method: Cross-reactivity of anti-CD3ε antibodies to cynomolgus CD3-epsilon was assessed by three-color phenotyping (CD3/CD4/CD8) using PBMCs from three different cynomolgus donors.
PBMCs from different cynomolgus donors were stained with anti-CD4, anti-CD8, and a panel of different anti-CD3 antibodies. For each anti-CD3 antibody, the CD3 positive cells were gated and assessed for their CD4/CD8 phenotype. FIG. 8A depicts the total CD3 positive cells in PBMCs from the three different donors. FIGS. 8B-8E show the percentage of CD3 positive cells displaying CD4−/CD8+, CD4+/CD8−, CD4+/CD8+, and CD4−/CD8− phenotypes, respectively.

AGS73.15 (MS497) [3] = target: T3, AGS73.15 (MS497); assay: flow cytometry, blocking of AGS73.15 binding to CD3ε on human T cells, % binding, the axis reads nM
T3 construct: It carries a human IgG Fc (detected with anti-human IgG Fc)

AGS73.15 (MS497) [4] = target: T3, AGS73.15 (MS497); assay: flow cytometry, blocking of AGS73.15 (200 ng/ml) binding to CD3ε on human T cells; AGS73.15 detected with anti-human IgG Fc-PE
[5] = target: T4, biotinylated 15-mer peptide corresponding to the CD3ε N-terminus (human, UniProt P07766 22-36, limits assumed, not fully specified; reading uncertain); assay: Luminex bead assay, peptide on streptavidin beads
T4 construct: domain: N-terminal 15-mer; Immobilised on streptavidin-conjugated Luminex beads; The text says 'peptides' in the plural, so more than one overlapping N-terminal 15-mer may be meant; also called N-terminal 15-mer; biotinylated N-terminal 15-mer
T4 peptide (looked up): {Biotin-linker}-QDGNEEMGGITQTPY
Method: A set of experiments was performed to map the epitope recognized by the anti-CD3ε antibodies. In these experiments, the anti-CD3ε antibodies were assessed for binding to a collection of overlapping 15-mer peptides spanning amino acids 1-27 of human CD3ε protein using a Luminex bead assay. Control CD3 proteins, control peptides, or the test peptides were immobilized on Luminex beads and incubated with a panel of anti-CD3 antibodies. Binding of the anti-CD3 antibodies to the peptide/protein immobilized on the Luminex bead was detected by R-Phycoerythrin conjugated secondary antibody.
Recombinant CD3 proteins (human CD3d/e heterodimer and cynomolgus CD3-epsilon (Sinobiological)) and control peptides (#p1, #p2, and #p3) were conjugated to Luminex beads using standard EDC/Sulfo-NHS chemistry. […] The Luminex beads with immobilized peptides or reagents were incubated with 50 ul of a panel of anti-CD3 antibodies (1 ug/ml) for one hour at room temperature, washed two times, incubated with mixture of anti-human and anti-mouse IgG-RPE (Jackson Immunoresearch 109-116-097 and Southern Biotech 1030-09, respectively) for 30 mins at RT, washed three times, and analyzed in the Luminex instrument to assess the level of bound anti-CD3 antibodies.

T2 sequence (Q95LI5 22-198): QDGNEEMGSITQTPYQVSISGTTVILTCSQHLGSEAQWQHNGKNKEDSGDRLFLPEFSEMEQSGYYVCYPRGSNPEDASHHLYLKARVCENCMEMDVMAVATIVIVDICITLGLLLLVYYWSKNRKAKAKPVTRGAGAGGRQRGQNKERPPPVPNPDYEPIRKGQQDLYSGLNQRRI

B1: 4b8 (antibody, V domains shown)
VH: EVQLVESGGGLVKPGGSLRLSCAASGFTFSSYSMNWVRQAPGKGLDWVSYISRSSNYTYYADSVMGRFTISRDNAKNSLYLQMNSLRAEDTAVYYCARDRRGYSGYNHFDYWGQGTLVTVSS
VL: DIQMTQSPSSLSASVGDRVTITCRASQSISNYLNWYQQKPGKAPKLLIYAASSLQSGVPSRFSGSRSGTDFTLTISSLQPEDFASYYCQQSFSTLYTFGQETKLEIKR
notes: Anti-CD3ε antibody
Human CD3 epsilon (CD3ε)
  EC50 (read off the curve): 1 to 3 nM
Cynomolgus CD3-epsilon [1]
  binding result: no binding

B2: 6d58 (antibody, V domains shown)
VH: QVHLVESGGGVVQPGRSLRLSCAASGFKFRSYGMHWVRQAPGKGLEWVAIIWYDGSKRYYADSVKGRFTISRDNSKNTLYLQMSSLRAEDTAVYYCARDLITGTTDYWGQGTLVTVSS
VL: DVVMTQSPLSLPVTLGQPASISCRSSRSLVYSDGNTHLIWFQQRPGQSPRRLIYRVSNRVSGVPDRFSGSGSGTDFTLKISRVEAEDVGVYYCLQGAHWPYTFGQGTKLEIKR
notes: also called 6d58 (same as 6d59)
Human CD3 epsilon (CD3ε)
  EC50 (read off the curve): ~0.05 nM
Cynomolgus CD3-epsilon [1]
  EC50 (read off the curve): ~0.07 nM

B3: 1c144.1 (antibody, V domains shown)
VH: ELQLVESGGGLVQPGGSLRLSCAASGFNFRSYEMNWVRQAPGKGLEWVSYISSSSTTIYYAGSVKGRFTISRDNAKHSLYLQMNSLRAEDTAVYYCARDRGALDYWGQGTLVTVSS
VL: DIQMTQSPSSLSASVGDRVTITCQASQDIRKYLNWYQQKPGKAPKLLIYDASNLETGVPSRFSGSGSGTDFSFTISSLQPEDLATYYCQHYANLPPLFTFGPGTKVDIKR
notes: the sheet prints 1c144.1
Cynomolgus CD3-epsilon [2]
  binding result: binds

B4: 6d59.id.1b18.1 (antibody, V domains shown)
VH: DVLLQESGPGLVKPSQSLSLTCSVTGYSITSGHYWIWIRQFPGNKLEWMGYITYDGSNNYNPSLKKRISITRDTSENQFFLKLNPVTTEDTATYYCARDVADSYGNGYDAMDYWGQGTSVTVSS
VL: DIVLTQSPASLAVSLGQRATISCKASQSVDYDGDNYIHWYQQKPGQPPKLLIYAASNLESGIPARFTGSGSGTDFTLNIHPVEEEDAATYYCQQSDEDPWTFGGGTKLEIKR
notes: Anti-idiotypic antibody against 6d59
AGS73.15 (MS497) [3]
  EC50: 0.443 nM
AGS73.15 (MS497) [4]
  IC50 (read off the curve): ~0.07 µg/mL

B5: 6d59.id.1b54.1 (antibody, V domains shown)
VH: DVQLQESGPGLVKPSQSLSLTCSVTGYSITSSYYWNWIRQFPGNKLEWMGSIMYDGNNNYNPSLKNRISITRDTSKNQFFLKLNSVTTEDTATYYCARNMADYFGNTYDALDYWGQGTSVTVSS
VL: DILLTQSPGSLAVSLGQRATISCKASQSADYGGDSYMSWYQQKPGQPPKLLIYAASNLESGTPARFSGSGSGTDFTLNIHPVEEEDAATYYCQQGNEDPWTFGGGTKLEIKR
notes: as for B4
AGS73.15 (MS497) [3]
  EC50: 0.413 nM
AGS73.15 (MS497) [4]
  IC50 (read off the curve): ~0.07 µg/mL

B6: 6d59.id.1b61.1 (antibody, V domains shown)
VH: DVQLQESGPGLVKPSQSLSLTCSVTGYSITSSYYWNWIRQFPGNKLEWMGYIMYDGNNNYNPSLKNRISITRDTSKNQFFLKLNSVTTEDTATYYCARNMADYFGNTYDALDYWGQGTSVTVSS
VL: DILLTQSPGSLAVSLGQRATISCKASQSADYGGDSYMSWYQQKPGQPPKLLIYAASNLESGTPARFSGSGSGTDFTLNIHPVEEEDAATYYCQQGNEDPWTFGGGTKLEIKR
notes: as for B4
AGS73.15 (MS497) [3]
  EC50: 0.368 nM
AGS73.15 (MS497) [4]
  IC50 (read off the curve): ~0.06 µg/mL

B7: 6d59.id.1b67.1 (antibody, V domains shown)
VH: QVTLKESGPGILKPSQTLSLTCSFSGFSLSTSGMGVGWIRQPSGKGLEWLAHIWWDDDKFYKPSLKNRLTISKDTSRNQVFLKITSVDTADAATYFCVRRSAYEAFTLDYWGQGTSVTVSS
VL: DIMLTQSPASLAVSLGQRATISCKASQSVDYDGNGYLNWYQQKPGQPPKLLIYAASNLESGIPARFSGSGSGTDFTLNIHPVEEEDVATYYCQQSSEDPFTFGSGTKLEIKR
notes: as for B4
AGS73.15 (MS497) [3]
  EC50: 0.56 nM
AGS73.15 (MS497) [4]
  IC50 (read off the curve): ~0.08 µg/mL

B8: 6d59.id.1b73.1 (antibody, V domains shown)
VH: QVQLQQSGPEVVKPGASVKMSCKASGYTFTDCVISWIKQRTGQGLEWIGEIHPGSGNTYNNEKFKGKATLTADKSSNTAYIQLSSLTSEDSAVYFCARVGDWYDDAMDYWGQGTSVTVSS
VL: DIVLTQSPASLAVSLGQRATISCKASQSVDYDGNGYMNWYQQKPGQPPKLLIYAASNLESGIPARFSGSGSGTDFTLNIHPVEEEDAATYYCQQSNEDPYTFGGGTKLEIKR
notes: as for B4
AGS73.15 (MS497) [3]
  EC50: 0.335 nM
AGS73.15 (MS497) [4]
  IC50 (read off the curve): ~0.05 µg/mL

B9: 6d59.id.1b76.1 (antibody, V domains shown)
VH: DVKLVDSGGGLVKPGGSLKLSCAASGFTFSNYGMSWVRQTPEKRLEWVATISSGGYYTYYPDSVKGRFTISRDNAKNTLYLQMGSLKSEDTAMYYCSRDREGFGNYLGAMDYWGQGTSVTVSS
VL: DIVLTQSPASLAVSLGQRATISCKASQSVDYDGNGYMNWYQQKPGQPPKLLIYAASNLESGIPARFSGSGSGTDFTLNIHPVEEEDAATYYCQQSNEDPYTFGGGTKLEIKR
notes: as for B4
AGS73.15 (MS497) [3]
  EC50: 0.243 nM
AGS73.15 (MS497) [4]
  IC50 (read off the curve): ~0.05 µg/mL

B10: 6d59.id.1b71.1 (antibody, V domains shown)
VL: DIVLTQSPASLAVSLGQRATISCKASQSVDYDGNGYMNWYQQKPGQPPKLLIYAASNLESGIPARFSGSGSGTDFTLNIHPVEEEDAATYYCQQSNEDPYTFGGGTKLEIKR
V domain: EVQLQQSGSELASPGTSVKLSCKASGYTFTSYWVQWIKQRPGQGLEWIGAIYPGDGDLRSTQKFKGKATLTADKSSDTAYMQLSSLASEDSAVYYCARLDDFDLDYWGQGTTLIVSS
notes: as for B4
AGS73.15 (MS497) [3]
  EC50: 0.327 nM
AGS73.15 (MS497) [4]
  IC50 (read off the curve): ~0.06 µg/mL

B11: 6d23 (antibody, V domains shown)
VH: QVQLVESGGGVVQPGRSLRLSCEASGFTFRSYGMHWVRQAPGKGLEWVAIIWYDGSNKYYGDSVKGRFTISRDNSKNTLSLQMNSLRAEDTAVYYCASLSVNDYYVLDVWGQGTTVTVSS
VL: DVVMTQSPFSLPVTLGQPASMSCRSSQSLVNSDGKTHLNWFQQRPGQSPRRLIYKVSNRDSGVPDRFSGSGSGTDFTLKISRVEAEDVGVYYCMQGTHWPLTFGGGTKVEIKR
notes: Anti-CD3ε antibody; also called 6d23.1; VCD3-6d23.1
[5]
  binding result: no binding (tested: 1 ug/ml)
